Test results taken from patent publication US20140322163A1.

B1: VRC07 G54H heavy chain complemented with VRC01 light chain (antibody, V domains shown)
VH: QVRLSQSGGQMKKPGDSMRISCRASGYEFINCPINWIRLAPGKRPEWMGWMKPRHGAVSYARQLQGRVTMTRDMYSETAFLELRSLTSDDTAVYFCTRGKYCTARDYYNWDFEHWGQGTPVTVSS
VL: EIVLTQSPGTLSLSPGETAIISCRTSQYGSLAWYQQRPGQAPRLVIYSGSTRAAGIPDRFSGSRWGPDYNLTISNLESGDFGVYYCQQYEFFGQGTKVQVDI
B2: VRC07 G54W heavy chain complemented with VRC01 light chain (antibody, V domains shown)
VH: QVRLSQSGGQMKKPGDSMRISCRASGYEFINCPINWIRLAPGKRPEWMGWMKPRWGAVSYARQLQGRVTMTRDMYSETAFLELRSLTSDDTAVYFCTRGKYCTARDYYNWDFEHWGQGTPVTVSS
VL: EIVLTQSPGTLSLSPGETAIISCRTSQYGSLAWYQQRPGQAPRLVIYSGSTRAAGIPDRFSGSRWGPDYNLTISNLESGDFGVYYCQQYEFFGQGTKVQVDI

Biological target: HIV-1 Env-pseudoviruses (neutralization panels)
Test: cell-based or functional assay

Binder | fold improvement of neutralization over wild type VRC07 (IC50), six-virus panel, TZM-bl [fold] | fold improvement of neutralization over wild type VRC07 (IC80), six-virus panel, TZM-bl [fold] | fold increase of neutralization over VRC01 [fold] | fold increase of neutralization over VRC07 [fold] | fold increase of neutralization potency compared to VRC07 heavy chain with VRC01 light chain [fold] | fold increase of neutralization potency over VRC01 [fold] | fold increase of neutralization potency over VRC07 [fold] | neutralization potency relative to VRC07, panel of 7-12 HIVs [fold] | neutralization potency relative to mature VRC01, panel of 7-12 HIVs [fold]
B1 | 2.3 | 2.5 | 7 | 2.5 | > 2 |  |  |  | 
B2 |  |  |  |  |  | 13 | 4.8 | > 2 | > 8
